We go through 3 proteins from patent US20110281938.

The target in data set [1] is TFPI (source and species not stated; Examples 8, 12 and 45), P10646.
Data set [2] addresses Recombinant human TFPI purified from a cell line from Novo Nordisk.

Chain of TFPI (source and species not stated; Examples 8, 12 and 45), P10646 (P10646 whole entry, looked up): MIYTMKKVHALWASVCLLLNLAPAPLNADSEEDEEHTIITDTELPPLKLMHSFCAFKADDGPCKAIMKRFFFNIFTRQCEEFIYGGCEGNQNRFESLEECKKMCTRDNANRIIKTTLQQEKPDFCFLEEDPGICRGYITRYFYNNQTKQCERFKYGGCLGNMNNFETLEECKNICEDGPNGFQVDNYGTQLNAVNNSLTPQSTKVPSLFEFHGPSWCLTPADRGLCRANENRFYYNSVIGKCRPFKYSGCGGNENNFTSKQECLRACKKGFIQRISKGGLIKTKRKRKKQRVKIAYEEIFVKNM

B1: tissue factor:FVIIa complex (TF:FVIIa) (protein)
chain 1: SGTTNTVAAYNLTWKSTNFKTILEWEPKPVNQVYTVQISTKSGDWKSKCFYTTDTECDLTDEIVKDVKQTYLARVFSYPAGNVESTGSAGEPLYENSPEFTPYLETNLGQPTIQSFEQVGTKVNVTVEDERTLVRRNNTFLSLRDVFGKDLIYTLYYWKSSSSGKKTAKTNTNEFLIDVDKGENYCFSVQAVIPSRTVNRKSTDSPVECMGQEKGEFREIFYIIGAVVFVVIILVIILAISLHKCRKAGVGQSWKENSPLNVS
chain 2: ANAFLEELRPGSLERECKEEQCSFEEAREIFKDAERTKLFWISYSDGDQCASSPCQNGGSCKDQLQSYICFCLPAFEGRNCETHKDDQLICVNENGGCEQYCSDHTGTKRSCRCHEGYSLLADGVSCTPTVEYPCGKIPILEKRNASKPQGRIVGGKVCPKGECPWQVLLLVNGAQLCGGTLINTIWVVSAAHCFDKIKNWRNLIAVLGEHDLSEHDGDEQSRRVAQVIIPSTYVPGTTNHDIALLRLHQPVVLTDHVVPLCLPERTFSERTLAFVRFSLVSGWGQLLDRGATALELMVLNVPRLMTQDCLQQSRKVGDSPNITEYMFCAGYSDGSKDSCKGDSGGPHATHYRGTWYLTGIVSWGQGCATVGHFGVYTRVSQYIEWLQKLMRSEPRPGVLLRAPFP
As for B1, the “TF:FVIIa activity, hydrolysis of fluorogenic substrate SN-17c, 8 nM TFPI” value in data set [1] is recorded as “TFPI inhibited approximately 50% of TF:FVIIa activity under these conditions”.

B2: extrinsic Xase: re-lipidated recombinant human tissue factor (Innovin) with factor VIIa (Enzyme Research Laboratories) (protein)
chain 1: SGTTNTVAAYNLTWKSTNFKTILEWEPKPVNQVYTVQISTKSGDWKSKCFYTTDTECDLTDEIVKDVKQTYLARVFSYPAGNVESTGSAGEPLYENSPEFTPYLETNLGQPTIQSFEQVGTKVNVTVEDERTLVRRNNTFLSLRDVFGKDLIYTLYYWKSSSSGKKTAKTNTNEFLIDVDKGENYCFSVQAVIPSRTVNRKSTDSPVECMGQEKGEFREIFYIIGAVVFVVIILVIILAISLHKCRKAGVGQSWKENSPLNVS
chain 2: ANAFLEELRPGSLERECKEEQCSFEEAREIFKDAERTKLFWISYSDGDQCASSPCQNGGSCKDQLQSYICFCLPAFEGRNCETHKDDQLICVNENGGCEQYCSDHTGTKRSCRCHEGYSLLADGVSCTPTVEYPCGKIPILEKRNASKPQGRIVGGKVCPKGECPWQVLLLVNGAQLCGGTLINTIWVVSAAHCFDKIKNWRNLIAVLGEHDLSEHDGDEQSRRVAQVIIPSTYVPGTTNHDIALLRLHQPVVLTDHVVPLCLPERTFSERTLAFVRFSLVSGWGQLLDRGATALELMVLNVPRLMTQDCLQQSRKVGDSPNITEYMFCAGYSDGSKDSCKGDSGGPHATHYRGTWYLTGIVSWGQGCATVGHFGVYTRVSQYIEWLQKLMRSEPRPGVLLRAPFP
Turning to B2, the “FXa generation by the extrinsic Xase (chromogenic FXa substrate), 2 nM TFPI” value in data set [2] was “curve #6 shows that TFPI shuts down Xa generation in the absence of ARC19499”.

B3: Factor Xa (FXa) (protein)
chain 1: ANSFLEEMKKGHLERECMEETCSYEEAREVFEDSDKTNEFWNKYKDGDQCETSPCQNQGKCKDGLGEYTCTCLEGFEGKNCELFTRKLCSLDNGDCDQFCHEEQNSVVCSCARGYTLADNGKACIPTGPYPCGKQTLER
chain 2: IVGGQECKDGECPWQALLINEENEGFCGGTILSEFYILTAAHCLYQAKRFKVRVGDRNTEQEEGGEAVHEVEVVIKHNRFTKETYDFDIAVLRLKTPITFRMNVAPACLPERDWAESTLMTQKTGIVSGFGRTHEKGRQSTRLKMLEVPYVDRNSCKLSSSFIITQNMFCAGYDTKQEDACQGDSGGPHVTRFKDTYFVTGIVSWGEGCARKGKYGIYTKVTAFLKWIDRSMKTRGLPKAKSHAPEVITSSPLK
On to B3, for which, in data set [1], the “FXa cleavage of chromogenic substrate S-2765, substrate added last, 1 nM FXa” value is “In the presence of ≧8 nM TFPI, inhibition is nearly complete under these conditions and little product is formed”.
